Bridges are numbered along the chain shown (N, C = ends). Where no end group is shown, it is not given here.
Columns and labels:
[1] = Testing of fibril formation by electron microscopy (EM); type: physicochemical; conditions: 450 μM solution in 10 mM phosphate buffer, 150 mM NaCl, 30% acetonitrile, pH 5.5; for fibril formation (EM): after three days incubation
Procedure: (§1) The physicochemical properties of cβ-AP were investigated by FT-IR (Fourier-transform infrared spectrometry) and CD (circular dichroism spectropolarimetry). EM (electron microscopy) and AFM (atomic force microscopy) were used to test the properties of fibrils of cβ-AP128. In the EM studies, 450 μM solutions of cβ-AP128 or β-AP (1-28) (SEQ ID NO: 2) or [Lys^17, Asp^21] β-AP(1-28) (SEQ ID NO: 5) in 10 mM phosphate buffer, 150 mM NaCl and 30% acetonitrile, pH 5.5 were initially incubated for several days and tested for fibril formation.

[2] = target: T1, β-AP (1-28) (Homo sapiens, UniProt P05067); test: Inhibition of the aggregation and fibril formation of β-AP (1-28) by cβ-AP128, tested by CD and EM; type: biochemical; conditions: 450 μM β-AP (1-28) and cβ-AP128, 10 mM phosphate buffer, 150 mM NaCl, 30% acetonitrile, pH 5.5
T1 construct: made in house; host or cells: chemical solid-phase peptide synthesis (Boc/Bzl on PAM resin), no expression host
Procedure: (§2) The effect of cβ-AP128 (SEQ ID NO: 20) on the aggregation and fibril formation of β-AP (1-28) was tested by CD and EM. A solution of 450 μM β-AP (1-28) (SEQ ID NO: […]) and cβ-AP128 (SEQ ID NO: […]) in 10 mM phosphate buffer, 150 mM NaCl and 30% acetonitrile, pH 5.5, was incubated for several days and tested for fibril formation by EM (FIGS. 2A and 2B).

[3] = FT-IR of aged peptide solutions/suspensions (β-pleated sheet conformation); type: physicochemical; conditions: 450 μM solutions/suspensions, 10 mM phosphate buffer, 150 mM NaCl, 30% acetonitrile, pH 5.5
Procedure: as §1

[4] = CD of peptide alone (β-pleated sheet formation and precipitation); type: physicochemical; conditions: 10 mM phosphate buffer, 150 mM NaCl, 30% acetonitrile, pH 5.5
Procedure: as §2

T1 sequence (P05067 672-699 limits assumed): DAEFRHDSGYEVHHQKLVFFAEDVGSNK

| Substance | incubation time over which no fibrils were formed (EM) [1] | time without changes of the CD spectra of the mixture with β-AP (1-28) [2] | conformation by FT-IR after aging [3] | fibril formation (EM) [1] | fate after β-pleated sheet formation [4] |
| --- | --- | --- | --- | --- | --- |
| cyclo^17,21 [Lys^17, Asp^21] β-AP (1 to 28) (DAEFRHDSGYEVHHQKKVFFDEDVGSNK; lactam 17-21; listed as Homo sapiens) [cβ-AP128, β-AP (1-28) derivative with lactam bridge between side chains of Lys17 and Asp21] | more than 30 days | more than 1 month | prevents the β-pleated sheet conformation |  |  |
| [Lys^17, Asp^21] β-AP (1-28) |  |  | β-pleated sheet conformation | completely fibrillated | precipitated out as insoluble amyloid |
| β-AP (1-28) |  |  | β-pleated sheet conformation | completely fibrillated | precipitated out as insoluble amyloid |
